This note sets out measurements from publication PMC9282883 (Nature, 2021).

Assay [1] concerns the target Prefusion-stabilized SARS-CoV-2 spike protein for SPR (residues 14–1211, D614G) (SARS-CoV-2 Wuhan-Hu-1 with D614G, D614G). Description: SPR. (Surface plasmon resonance follows binding to a sensor surface in real time, without labels.)
Assay [2] deals with yeast-displayed unmutated SARS-CoV-2 RBD (Wuhan-Hu-1) (SARS-CoV-2, UniProt P0DTC2). Description: flow cytometry on cells. On the technique in general: Flow cytometry measures light scatter and fluorescence of single cells or particles in a stream.
Assay [3] addresses SARS-CoV-2 RBD WT (for crystallization) (SARS-CoV-2, UniProt P0DTC2). Description: crystal structure.

B1: S2D106 Fab (Fab, V domains shown)
VH: EVQLVQSGAEVKKPGSSVKVSCKASGGPFSSSAISWVRQAPGQGLEWMGGIIPMVGTANYAQKFQGRVTITADESTSTAYMELSSLRSEDTAVYYCARDSRYCSGGSCYSVWFDPWGQGTLVTVSS
VL: not shown
Broadly, the Kd is a measure of binding affinity in units of concentration. The low end stands for higher affinity, the high end for lower affinity. In assay [1], B1 displayed a Kd of 170 pM. This counts as sub-nanomolar.

B2: S2H14 IgG1 (antibody, V domains shown)
VH: not shown
VL: NFMLTQPHSVSESPGKTVTISCTRSSGSIASNYVQWYQQRPGSSPTTVIYEDNQRPSGVPDRFSGSIDSSSNSASLTISGLKTEDEADYYCQSYDSSNQVFGGGTKLTVL
Turning to B2, the binding result in assay [2] is “binds”.

B3: S2X259 Fab (Fab, V domains shown)
VH: QVQLVQSGAEVKKPGSSVKVSCKASGGIFNTYTISWVRQAPGQGLEWMGRIILMSGMANYAQKIQGRVTITADKSTSTAYMELTSLRSDDTAVYYCARGFNGNYYGWGDDDAFDIWGQGTLVTVYS
VL: QTVLTQPPSVSGAPGQRVTISCTGSNSNIGAGYDVHWYQQLPGTAPKLLICGNSNRPSGVPDRFSGSKSGTSASLAITGLQAEDEADYYCQSYDSSLSGPNWVFGGGTKLTVL
Take B3: the binding result in assay [3] is given as “binds”.
